The target in the test is T1, Vph1NT-FLAG (first 406 amino acids of Vph1p with C-terminal FLAG) (S. cerevisiae, UniProt P32563 1-406).
T1 sequence (looked up): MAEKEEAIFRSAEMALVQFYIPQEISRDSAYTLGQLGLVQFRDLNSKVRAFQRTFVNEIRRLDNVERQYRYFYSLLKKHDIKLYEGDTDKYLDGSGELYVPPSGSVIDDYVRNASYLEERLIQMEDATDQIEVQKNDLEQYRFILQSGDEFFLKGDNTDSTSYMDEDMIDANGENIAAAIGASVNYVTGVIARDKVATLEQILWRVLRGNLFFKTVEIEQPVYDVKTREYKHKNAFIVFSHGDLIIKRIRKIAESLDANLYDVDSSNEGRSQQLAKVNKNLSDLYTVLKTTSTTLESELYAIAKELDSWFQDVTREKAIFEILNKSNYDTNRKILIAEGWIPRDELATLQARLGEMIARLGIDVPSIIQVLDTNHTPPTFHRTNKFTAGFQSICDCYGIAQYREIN
The test is described as follows: pull-down.

B1: GST-Rav1(840–1125) (domain or fragment, S. cerevisiae, UniProt P47104 840-1125, looked up)
chain: LTEQLTKTTLPYLTRHQQITLITVIEAVDEVTKNENIVDYNGVRFLLGVKLFLSHKNIQKSILMRDVSWALHSDNKEILLSSIDRHITSWNRAREYRIAYWIKEQDLVKKFEDIAKYEFSKDDKRDPSRCAIFYLALKKKQILLSLWKMAIGHPEQQKMVRFISNDFTVPRWRTAALKNAFVLLSKHRYMDAAVFFLLTDSLKDCVNVLCKQVHDMDLAIGVCRVYEGDNGPVLGELLTAQMLPETIKENDRWKASFIYWKLRKQEVAIKALLTAPIDLENNSSIV
As to B1, the binding result is on record as “binds”.

For the origin of these results see paper PMC3907276 (Molecular Biology of the Cell, 2014).
